Where “and” joins values, the source holds several entries; their conditions need not be identical. Equal values may be shown once.

Data set [1] in a line: Bioconversion of eugenol to vanillin: one-pot concurrent cascade EUGO + alkene cleavage oxygenase (5 mM scale). Type of data set: biochemical. As to conditions: for Product distribution after 24 hours 2a (%) / Product distribution after 24 hours 3a (%) / Product distribution after 24 hours 5a (%): Table 8b, EUGO FD-CFE 1 mg/mL, CO-0X FD-CFE 1 mg/mL, catalase 10 mg/mL, eugenol 5 mM; for Reaction composition at 24 hours (%) 1a / Reaction composition at 24 hours (%) 2a / Reaction composition at 24 hours (%) 3a / Reaction composition at 24 hours (%) 5a / Conversion of 1a to 3a (%): EUGO fresh CFE 1 mg/mL, IECO 0 mg/mL; for Conversion of 1a to 3a (%): 24 h. The procedure:
Stock solutions of eugenol (100 mM) were prepared in ethanol or DMSO and stored at −20° C. Unless otherwise stated, the reaction mixtures (0.5 mL) were set up in 1.5 mL glass vials as follows: freeze-dried cell free extract of IECO/CO-XX (3 mg) and EUGO (0.5 mg) were dissolved in the reaction buffer (50 mM glycine-NaOH pH 9.0) containing sodium ascorbate (1 mM), FeSO4 (1 mM) and bovine liver catalase (5 mg, Sigma Aldrich C40). The reaction was initiated by the addition of 0.025 mL eugenol stock (final concentration 5 mM), then incubated at 30° C. and 120 rpm overnight (rotary shaker). The final content of cosolvent was 5% v/v. To improve oxygenation, the vials were placed horizontally. At certain time points, samples (0.2 mL) were quenched with methanol (0.4 mL) and the mixture was centrifuged at 20238 g for 5-10 mins. Finally, the supernatant was analysed by HPLC.
EUGO (0.5 mg CFE), CO-25 (3 mg CFE) and catalase (5 mg, Sigma product #C40) were dissolved in 50 mM Glycine-NaOH pH 9.0 or Tris-HCl pH 8.0 together with FeSO4 (1 mM) and sodium ascorbate (1 mM). Note that the buffer content of the freeze-dried biocatalyst prep was not considered for the assembling of the reaction. The reaction was started by the addition of 5 mM eugenol from a 20× stock in ethanol. The reactions—performed in glass vials—were then incubated at 30° C. and 120 rpm (25 mm shaker). Finally, samples of the reaction mixture were diluted with MeOH and analyzed by HPLC at 280 and 340 nm.

A short description of data set [2]: Biotransformation of eugenol to coniferyl alcohol by EUGO (50 mM scale). Type of data set: biochemical. The procedure: The biotransformation (total volume 3 mL) was performed in a 10 mL round bottom flask with a stir bar. Eugenol (0.023 mL, 25 mg, 0.15 mmol, 1.0 equiv., 50 mM final conc.) was dissolved in DMSO or ethanol (0.150 mL). Then, the solution was diluted with Tis-HCl buffer (50 mM, pH 8.0, 2.827 mL). To obtain a homogeneous dispersion of the eugenol droplets, the mixture was stirred for about 15-20 mins. Then bovine liver catalase (Sigma P #C40, 30 mg, 2300 kU) and EUGO (30 mg of freeze-dried cell free extract, Tris base salt content was neglected) were added consecutively (note: EUGO was added after the catalase was completely dissolved). The reaction was incubated at room temperature and gentle stirring (40 rpm) for 17-24 hours. At certain time points, samples (0.1 mL) were diluted with methanol (0.8 mL, 8 vol equiv.) for stopping the reaction. The samples were centrifuged at 20238×g for 10 mins and the supernatant was analyzed by HPLC. When the reaction was completed, the products were extracted with ethyl acetate (3×1.5 mL EtOAc, in 2 mL microcentrifuge tubes). The aqueous and organic phases were separated by centrifugation (20238×g for ˜3 mins). Then, the organic phase was dried with NaSO4 and concentrated under reduced pressure (40° C., 200 mbar), but not dried completely to avoid polymerization. The concentrate was directly purified by silica gel chromatography (10 mL column volume) using a mixture of 1:1 etylacetate:cyclohexane as eluent. Fractions containing coniferyl alcohol (according to TLC) were combined and concentrated under reduced pressure (40° C., 200 mbar). Final drying under high vacuum (1.5 mbar) and inert gas flow yielded the title compound as yellowish solid (24.2 mg, 0.134 mmol, 90% yield). Notes: The obtained product was stored at −20° C. under inert gas atmosphere. Evaporation of a product solution in chloroform induced polymerization, therefore, no crude NMR was taken before product purification.

Where [3] appears, read: EUGO FD-CFE 10 mg/mL, eugenol 50 mM, catalase 10 mg/mL, pH 8.0, 5% v/v DMSO, room temperature, 17 hours.
The mark [4] stands for this setting: EUGO FD-CFE 10 mg/mL, eugenol 50 mM, catalase 10 mg/mL, pH 8.0, 5% v/v DMSO, room temperature, 24 hours.

B1: CO-23: alkene cleavage oxygenase, Pseudomonas viciae, SEQ ID NO: 130 (protein, listed as Pseudomonas viciae)
chain: MTIPFPQTPEFSGALYTPSRVEAEVFDLEIEGVLPASIGGTFYQVAPDPQYPPMLGNDIFFNGDGVVSRFNFANGKVSMRRRYVKTDRLLAQRREGRSLNGVYRNVYTNDRLAAKNNTTANTTVIPHNGVLLALKEDALPWAMDLDTLETLGEWTFDGQIKSATFTAHPKLDPVTGNLLACSYEAKGDGTPDLAYFEISPDGKLLHEIWFQAPYAAMVHDFAVTERYVVFPLIPLTVDVERMKNGGPHFQWQPDLPQLFAVVPRNGNAQDVRWFKGPKDGFQGHTLNAFDEDGKVYVDMPVTGGNIFYFFPQADGYVPPPETLAASLMRWTFDLNSALDEVEPQPLTDYPCEFPRCDDRYIGRKYQHGFLLAFDPERPYNPANGPIPFQFFNLLVHLNLKTGITDAWFPGDSGCFQEPIFIPRSADAEEADGYVVALLNLIAEGRSELVVLDSRDMASGPIARIRIPFRMRMSLHGCWTADPN
Regarding B1, in data set [1] (pH 8.0), the “Product distribution after 24 hours 2a (%)” value is 69.0%, the “Product distribution after 24 hours 3a (%)” value worked out at 13.7% and the “Product distribution after 24 hours 5a (%)” value is on record as 17.3%. Moreover, in data set [1] (pH 9.0), the “Product distribution after 24 hours 2a (%)” value came out at 67.0%, the “Product distribution after 24 hours 3a (%)” value is listed as 13.6% and the “Product distribution after 24 hours 5a (%)” value came out at 19.4%.

B2: EUGO: eugenol oxidase from Rhodococcus jostii (Uniprot: Q0SBK1), SEQ ID NO: 2, used as cell free extract (protein)
chain: MTRTLPPGVSDERFDAALQRFRDVVGDKWVLSTADELEAFRDPYPVGAAEANLPSAVVSPESTEQVQDIVRIANEYGIPLSPVSTGKNNGYGGAAPRLSGSVIVKTGERMNRILEVNEKYGYALLEPGVTYFDLYEYLQSHDSGLMLDCPDLGWGSVVGNTLDRGVGYTPYGDHFMWQTGLEVVLPQGEVMRTGMGALPGSDAWQLFPYGFGPFPDGMFTQSNLGIVTKMGIALMQRPPASQSFLITFDKEEDLEQIVDIMLPLRINMAPLQNVPVLRNIFMDAAAVSKRTEWFDGDGPMPAEAIERMKKDLDLGFWNFYGTLYGPPPLIEMYYGMIKEAFGKIPGARFFTHEERDDRGGHVLQDRHKINNGIPSLDELQLLDWVPNGGHIGFSPVSAPDGREAMKQFEMVRNRANEYNKDYAAQFIIGLREMHHVCLFIYDTAIPEAREEILQMTKVLVREAAEAGYGEYRTHNALMDDVMATFNWGDGALLKFHEKIKDALDPNGIIAPGKSGIWSQRFRGQNL
modifications: cell free extract; Rhodococcus Jostii
As to B2, in data set [1] (cosolvent DMSO 5% v/v, 5 mM 1a), the “Reaction composition at 24 hours (%) 1a” value is listed as 1≤ %, the “Reaction composition at 24 hours (%) 2a” value is recorded as 96%, the “Reaction composition at 24 hours (%) 3a” value is listed as 1≤ % and the “Reaction composition at 24 hours (%) 5a” value is on record as 2%. Further, the “Conversion of 1a to 3a (%)” value in data set [1] (cosolvent DMSO 5% v/v, 5 mM 1a) is given as 1≤ %. Further, in data set [1] (cosolvent EtOH 5% v/v, 5 mM 1a), the “Reaction composition at 24 hours (%) 1a” value is given as 1≤ %, the “Reaction composition at 24 hours (%) 2a” value is 97%, the “Reaction composition at 24 hours (%) 3a” value is 1≤ % and the “Reaction composition at 24 hours (%) 5a” value is recorded as 2%. The “Conversion of 1a to 3a (%)” value in data set [1] (cosolvent EtOH 5% v/v, 5 mM 1a) is given as 1≤ %. Further, in data set [1] (one pot concurrent cascade EUGO-IECO, 5 mM 1a, time studies), the “time in which the oxidation step (1a to 2a) occurs” value is reported as “within the first two hours”. Also, in data set [2] (setting [3]), the “2a” value was 48 mM and 41 mM; the “Reaction composition (%) 2a” value is 95% and 76%; the “Reaction composition (%) 5a” value is 4% and 3%. Besides, in data set [2] (setting [4]), the “2a” value is listed as 50 mM, the “Reaction composition (%) 1a” value is recorded as 0%, the “Reaction composition (%) 2a” value is 95% and the “Reaction composition (%) 5a” value is 5%. For the same molecule, in data set [2] (EUGO cell free extract, 50 mM 1a), the “time within which the substrate was consumed” value is at most 24 h.

B3: CO-24: alkene cleavage oxygenase, Pseudomonas ogarae, SEQ ID NO: 132 (protein, listed as Pseudomonas ogarae)
chain: MSIPFPQTPEFSGVLYTPSRVEAEVFDLEIEGILPASICGTFYQVAPDPQYPPMLGNDIFFNGDGVVSRFNFANGKVSMRRRYVKTDRLLAQRREGRSLNGVYRNVYTNDPLAAKNNTTANTTVIPHNGVLLALKEDALPWALDLETLETLGEWTFDGQIKAATFTAHPKLDPVTGNLLACSYEAKGDGTPDLAYFEISPDGKLLHEIWFQAPYAAMVHDFAVTERYVVFPLIPLTVDVERMKNGGPHFQWQPDLPQLFAIVPRNGCGQDVRWFKGPKDGFQGHTLNAFDEDGKVYVDMPVTGGNIFYFFPQADGYVPPPETLAASLMRWTFDLNGAQEDVQPQPLTEYPCEFPRCDDRYIGRKYQHGFLLAFDPERPYNPANGPIPFQFFNLLAHLDLQTGRTDAWFPGDSGCFQEPIFIPRSADAEEADGYVVALLNLIAEGRSELVVLDTRDMASGPIARIRIPFRMRMSLHGCWAPND
Regarding B3, in data set [1] (pH 8.0), the “Product distribution after 24 hours 2a (%)” value was 78.5%, the “Product distribution after 24 hours 3a (%)” value stood at 6.1% and the “Product distribution after 24 hours 5a (%)” value came to 15.4%. Also, in data set [1] (pH 9.0), the “Product distribution after 24 hours 2a (%)” value was determined as 73.9%, the “Product distribution after 24 hours 3a (%)” value is listed as 5.6% and the “Product distribution after 24 hours 5a (%)” value turned out to be 20.5%.

The record behind these values is patent US20260176659A1, “IMPROVED METHOD FOR THE PRODUCTION OF NATURAL VANILLIN” (BASE SE, priority 2022, published 2026).
